# Substitutions are numbered along the chain they refer to.
# B1: Polypeptide No. 29 (scFv, V domains shown)
# VH: QVQLVQSGAEVKKPGASVKVSCKASGYTFTGYYLHWVRQAPGQGLEWMGVINVRRGSTRYAQNFQGRVTMTRDTSTSTVYMELSSLRSEDTAVYYCARVSGSYYQPWGQGTLVTVSS
# VL: DIQMTQSPSSLSASVGDRVTITCRASQSISRWLAWYQQKPGKAPKLLIYDASNLETGVPSRFSGSGSGTDFTLTISSLQPEDFATYYCQQGNSFPPIFGGGTKVEIKR
# notes: scFv
# B2: Polypeptide No. 31 (scFv, V domains shown)
# VH: QVQLVQSGAEVKKPGSSVKVSCKASGGTFSTYAITWVRQAPGQGLEWMGGIIPIVGRANYAQKFQGRVTITADESTSTAYMELSSLRSEDTAVYYCARSGGHDLDYWGQGTLVTVSS
# VL: DIQMTQSPSSLSASVGDRVTITCRASQGIGNDLGWYQQKPGKAPKLLIYGASSVQSGVPSRFSGSGSGTDFTLTISSLQPEDFATYYCQQSYSTPITFGQGTRLEIKR
# notes: scFv
# B3: Polypeptide No. 26 (scFv, V domains shown)
# VH: QVQLVQSGAEVKKPGASVKVSCKASGYTFTENEMHWVRQAPGQGLEWMGWMNPNSGNTGYAQKFQGRVTMTRDTSTSTVYMELSSLRSEDTAVYYCAREGGDWPYYYMDVWGKGTTVTVSS
# VL: DIQMTQSPSSLSASVGDRVTITCQASQDIRNYLNWYQQKPGKAPKLLIYAASSLQSGVPSRFSGSGSGTDFTLTISSLQPEDFATYYCQQTSSTPLTFGPGTKVDIKR
# notes: scFv
# B4: Polypeptide No. 27 (scFv, V domains shown)
# VH: QVQLVQSGAEVKKPGASVKVSCKASGYTLTGYYMHWVRQAPGQGLEWMGWMNPSSGNTGYAQQFQGRVTMTRDTSTSTVYMELSSLRSEDTAVYYCARASSDRYYYDGVWYFDLWGRGTLVTVSS
# VL: B2 VL with G28D, G30R, D32N, V54L, S91T, T94S, I96P, R103K
# notes: scFv
# B5: Polypeptide No. 285 (scFv, V domains shown)
# VH: QVQLVQSGAEVKKPGSSVKVSCKASGYSFTNYYMHWVRQAPGQGLEWMGGIIPVFGTTTYSQTFQGRVTITADESTSTAYMELSSLRSEDTAVYYCARESQDGDFDYWGQGTLVTVSS
# VL: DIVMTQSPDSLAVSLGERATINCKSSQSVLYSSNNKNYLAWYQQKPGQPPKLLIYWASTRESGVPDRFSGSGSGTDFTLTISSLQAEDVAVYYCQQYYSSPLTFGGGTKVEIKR
# notes: scFv
# B6: Polypeptide No. 274 (scFv, V domains shown)
# VH: QVQLVQSGAEVKKPGSSVKVSCKASGYTFTYRYLHWVRQAPGQGLEWMGRITPISGTTNYAQKFQGRVTITADESTSTAYMELSSLRSEDTAVYYCAKDSGQLAHYGMDVWGQGTTVTVSS
# VL: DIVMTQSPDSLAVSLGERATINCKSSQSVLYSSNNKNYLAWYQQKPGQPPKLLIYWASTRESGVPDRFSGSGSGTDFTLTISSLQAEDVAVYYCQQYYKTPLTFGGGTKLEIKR
# notes: scFv
# B7: Polypeptide No. 275 (scFv, V domains shown)
# VH: QVQLVQSGAEVKKPGSSVKVSCKASGYTFTSYYMHWVRQAPGQGLEWMGWMNPYSGNTGYAQKFQGRVTITADESTSTAYMELSSLRSEDTAVYYCARVGSGWYSDYWGQGTLVTVSS
# VL: not shown
# notes: scFv
# B8: Polypeptide No. 255 (scFv, V domains shown)
# VH: QVQLVQSGAEVKKPGSSVKVSCKASGYTLTELSMHWVRQAPGQGLEWMGGIIPISGTVTYAQKFQGRVTITADESTSTAYMELSSLRSEDTAVYYCANKGQQLVRGYFQHWGQGTLVTVSS
# VL: DIQMTQSPSSLSASVGDRVTITCQASHDIRNSVNWYQQKPGKAPKLLIYATSSLQSGVPSRFSGSGSGTDFTLTISSLQPEDFATYYCQQSYNTPFTFGQGTKLEIKR
# notes: scFv
# B9: Polypeptide No. 267 (scFv, V domains shown)
# VH: QVQLVQSGAEVKKPGSSVKVSCKASGYTLTSFGISWVRQAPGQGLEWVGMIIPLSGTTHYAQKFQGRVTITADESTSTAYMELSSLRSEDTAVYYCANLYGGNAYYYYGMDVWGQGTTVTVSS
# VL: B8 VL with Q24R, H27Q, R30S, S32F, N34A, T51A, Y92F, N93D, F96Y
# notes: scFv
# B10: Polypeptide No. 236 (scFv, V domains shown)
# VH: QVQLVQSGAEVKKPGSSVKVSCKASGGTFSSYAISWVRQAPGQGLEWMGGIIPILGIANYAQKFQGRVTITADESTSTAYMELSSLRSEDTAVYYCAHVDGYGMDVWGQGTTVTVSS
# VL: EIVMTQSPATLSVSPGERATLSCRASQSVSSNLAWYQQKPGQAPRLLIYDVSSRATGIPARFSGSGSGTEFTLTISSLQSEDFAVYYCQQLDAYPLTFGGGTKVEIKR
# notes: scFv
# B11: Polypeptide No. 266 (scFv, V domains shown)
# VH: QVQLVQSGAEVKKPGSSVKVSCKASGYSLTELSIHWVRQAPGQGLEWMGGINPISGTANYAQKFQGRVTITADESTSTAYMELSSLRSEDTAVYYCARGTVRLNWFDPWGQGTLVTVSS
# VL: B10 VL with S30G, N32Q, A34G, D50G, V51A, S53T, L91S, D92F, A93S, Y94T
# notes: scFv
# B12: Polypeptide No. 277 (scFv, V domains shown)
# VH: QVQLVQSGAEVKKPGSSVKVSCKASGYTFTGYYMHWVRQAPGQGLEWMGWIDPNSGGTNYAQKFQGRVTITADESTSTAYMELSSLRSEDTAVYYCARDVDTAMVTDYWGRGTLVTVSS
# VL: EIVMTQSPATLSVSPGERATLSCRASQSVDNLVGWYQQKPGQAPRLLIYDISSRATGIPARFSGSGSGTEFTLTISSLQSEDFAVYYCQQYGRSPITFGQGTRLEIKR
# notes: scFv
# B13: Polypeptide No. 230 (scFv, V domains shown)
# VH: QVQLVQSGAEVKKPGSSVKVSCKASGGTFSSNAINWVRQAPGQGLEWMGGIIPLFGTTNYAQKFQGRVTITADESTSTAYMELSSLRSEDTAVYYCARVLSGWYGTYYFDYWGQGTLVTVSS
# VL: EIVMTQSPATLSVSPGERATLSCRASQSVSADYIAWYQQKPGQAPRLLIYDVSTRASGIPARFSGSGSGTEFTLTISSLQSEDFAVYYCQHYGSSQVTFGQGTKVEIKR
# notes: scFv
# B14: Polypeptide No. 251 (scFv, V domains shown)
# VH: QVQLVQSGAEVKKPGSSVKVSCKASGGTFSSDAINWVRQAPGQGLEWMGGIIPIVGTPTYAQKFQGRVTITADESTSTAYMELSSLRSEDTAVYYCAKGLAFGVFDGLDVWGQGTTVTVSS
# VL: B13 VL with A31S, D32N, I34L, S57T, H91Q, Q96T, V97L, Q101G
# notes: scFv
# B15: Polypeptide No. 234 (scFv, V domains shown)
# VH: QVQLVQSGAEVKKPGSSVKVSCKASGHTFTAYYMHWVRQAPGQGLEWMGWMSPYSGNTGYAQNFQGRVTITADESTSTAYMELSSLRSEDTAVYYCARATRGTIQHWGQGTLVTVSS
# VL: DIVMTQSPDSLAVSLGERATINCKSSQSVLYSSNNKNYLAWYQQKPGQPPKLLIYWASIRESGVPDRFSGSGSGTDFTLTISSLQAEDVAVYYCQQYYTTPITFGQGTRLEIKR
# notes: scFv
# B16: Polypeptide No. 271 (scFv, V domains shown)
# VH: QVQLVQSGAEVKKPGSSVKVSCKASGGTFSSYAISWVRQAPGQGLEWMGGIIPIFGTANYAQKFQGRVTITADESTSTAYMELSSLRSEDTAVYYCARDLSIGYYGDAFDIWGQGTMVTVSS
# VL: EIVMTQSPATLSVSPGERATLSCRASQSVSYNQLAWYQQKPGQAPRLLIYDISSRAAGIPARFSGSGSGTEFTLTISSLQSEDFAVYYCQQYGGLPATFGQGTRLEIKR
# notes: scFv
# B17: Polypeptide No. 264 (scFv, V domains shown)
# VH: QVQLVQSGAEVKKPGSSVKVSCKASGYTLTELSMHWVRQAPGQGLEWMGGIIPISSATSIPQKFQGRVTITADESTSTAYMELSSLRSEDTAVYYCARGALYSSSPVRVVAGTKGWFDPWGQGTLVTVSS
# VL: B3 VL with Q24R, R30S, N34A, T91Y, S92Y, T94Y, P100G, D105E
# notes: scFv
# B18: Polypeptide No. 272 (scFv, V domains shown)
# VH: QVQLVQSGAEVKKPGSSVKVSCKASGYIFTNYYIQWVRQAPGQGLEWMGGIIPIFGTVGYAQKFQGRVTITADESTSTAYMELSSLRSEDTAVYYCARGRIGGGNDYWGQGTLVTVSS
# VL: B8 VL with H27Q, D28Y, R30S, S32Y, V33L, A50D, T51A, Q55E, N93S, F96Y
# notes: scFv
# B19: Polypeptide No. 232 (scFv, V domains shown)
# VH: QVQLVQSGAEVKKPGASVKVSCKASGYTFTSYGIHWVRQAPGQGLEWMGGIIPIFGTASYAQKFQGRVTMTRDTSTSTVYMELSSLRSEDTAVYYCTRSNGIAAAGTHWYFDLWGRGTLVTVSS
# VL: B3 VL with Q24R, D28N, R30A, Y32S, T91Y, T94Y, L96P
# notes: scFv
# B20: Polypeptide No. 252 (scFv, V domains shown)
# VH: QVQLVQSGAEVKKPGSSVKVSCKASGYTLTDLSIHWVRQAPGQGLEWVGGIIPMSGTANYAQKFQGRVTITADESTSTAYMELSSLRSEDTAVYYCARSSSSWPKYFQHWGQGTLVTVSS
# VL: not shown
# notes: scFv
# Molecular target: T1, huCD33-R69-His recombinant protein (human, UniProt P20138 18-259)
# T1 construct: extracellular domain
# T1 sequence (P20138 18-259): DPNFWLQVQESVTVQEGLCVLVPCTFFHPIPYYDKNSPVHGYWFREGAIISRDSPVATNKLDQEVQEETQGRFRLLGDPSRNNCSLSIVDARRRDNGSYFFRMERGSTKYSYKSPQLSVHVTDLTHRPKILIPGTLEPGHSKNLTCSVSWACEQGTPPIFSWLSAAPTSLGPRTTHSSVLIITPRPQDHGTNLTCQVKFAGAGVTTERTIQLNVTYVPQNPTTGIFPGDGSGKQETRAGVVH
# Assay: BLI
row,binding result,Binder
1,no binding,B1
2,no binding,B2
3,no binding,B3
4,no binding,B4

# Molecular target: T2, huCD33-G69-Fc recombinant protein (human, UniProt P20138 18-259)
# T2 construct: extracellular domain; also called CD33 R69G
# T2 sequence (P20138 18-259 R69G): as the sequence (P20138 18-259) above, with R52G counted along it
# Assay: BLI
row,binding result,Binder
1,binds,B1
2,binds,B2
3,binds,B3
4,binds,B4

# Molecular target: T3, huFLT3-T227-His (human, UniProt P36888 27-543)
# T3 construct: extracellular domain; also called FLT3 WT
# Assay: BLI
# Procedure: (§1) Discovered scFvs were analyzed for binding to huCD33-R69-His or huCD33-G69-Fc recombinant proteins (for anti-CD33 scFvs; for CLL-1 scFvs, huCLL1-K244-Avi-Tev-His or huCLL1-Q244-Avi-Tev-His were used; for FLT3, huFLT3-T227-His or huFLT3-M227-Fc were used) using BLI on a ForteBio Octet HTX instrument. Streptavidin-coated biosensors were loaded with biotinylated anti-V5 tag monoclonal antibody for 5 min and were then quenched and blocked with 20 μM amine-PEG2-Biotin for 5 min. scFvs were captured on biosensors from scFv clone periplasmic extracts. huCD33 (or huCLL-1, or huFLT3) proteins were then associated with the captured scFvs for 2 minutes, followed by dissociation with buffer (1×HBST [10 mM HEPES pH 7.4, 150 mM NaCl, 0.05% Tween-20], 1 g/L BSA) for 5 minutes. […] Data was fitted with 1:1 Langmuir equation and off-rate values were reported.
row,binding result,Binder
1,binds,B5
2,binds,B6
3,binds,B7
4,binds,B8
5,binds,B9
6,binds,B10
7,binds,B11
8,binds,B12
9,binds,B13
10,binds,B14
11,binds,B15
12,binds,B16
13,binds,B17
14,binds,B18
15,binds,B19
16,binds,B20

# Molecular target: T4, huFLT3-M227-Fc (human, UniProt P36888 27-543)
# T4 construct: extracellular domain; also called FLT3 Mutant
# Assay: BLI
# Procedure: as §1
row,binding result,Binder
1,binds,B5
2,binds,B6
3,binds,B7
4,binds,B8
5,binds,B9
6,binds,B10
7,binds,B11
8,binds,B12
9,binds,B13
10,binds,B14
11,binds,B15
12,binds,B16
13,binds,B17
14,binds,B18
15,binds,B19
16,binds,B20

# Molecular target: T5, huCD33-R69 stably expressed on Jurkat cells (human, UniProt P20138 18-364)
# T5 construct: whole, on cells; >200,000 receptors per cell; also called CD33 WT; CD33^ARG69
# T5 sequence (P20138 18-364): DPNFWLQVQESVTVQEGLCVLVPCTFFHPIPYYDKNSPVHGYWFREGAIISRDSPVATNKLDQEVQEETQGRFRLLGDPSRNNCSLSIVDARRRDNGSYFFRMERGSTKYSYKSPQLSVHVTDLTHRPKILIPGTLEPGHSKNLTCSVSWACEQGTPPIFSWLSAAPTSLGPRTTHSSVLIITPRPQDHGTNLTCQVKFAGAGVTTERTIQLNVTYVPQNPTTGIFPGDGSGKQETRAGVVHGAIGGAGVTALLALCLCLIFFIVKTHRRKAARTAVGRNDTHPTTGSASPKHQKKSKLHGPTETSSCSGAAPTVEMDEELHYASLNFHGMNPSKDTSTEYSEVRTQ
# Assay: FACS on cells;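 note: fixed Jurkat cells bearing either CD33 variant, barcoded by dye, exposed to myc-tagged scFv periplasmic extracts, detected with anti-myc PE antibody and read by flow cytometry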
# Procedure: (§2) Jurkat cells were engineered to stably express either the huCD33-R69 or huCD33-G69 variant at >200,000 receptors per cell. Parental, huCD33-R69, and huCD33-G69 Jurkat cell lines were stained with differing levels of CellTrace Violet Cell Proliferation Kit (ThermoFisher, cat. #C34557) to barcode each cell line. Barcoded Jurkat cell lines were fixed with paraformaldehyde and incubated with myc-labeled scFv periplasmic extracts and a secondary anti-myc PE-conjugated monoclonal antibody. Appropriate positive and negative controls were used. Stained cells were analyzed by flow cytometry (CytoFLEX, Beckman Coulter, Inc.) and binding was assessed by change in PE mean fluorescence intensity (MFI) of the barcoded cell populations.
row,geometric mean MFI fold change over Jurkat parental [fold],Binder
1,< 2,B1
2,< 2,B2
3,< 2,B3
4,< 2,B4

# Molecular target: T6, huCD33-G69 stably expressed on Jurkat cells (human, UniProt P20138 18-364)
# T6 construct: whole, on cells; >200,000 receptors per cell; also called CD33 Mutant; CD33 R69G
# T6 sequence (P20138 18-364 R69G): as the sequence (P20138 18-364) above, with R52G counted along it
# Assay: FACS on cells;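 note: fixed Jurkat cells bearing either CD33 variant, barcoded by dye, exposed to myc-tagged scFv periplasmic extracts, detected with anti-myc PE antibody and read by flow cytometry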
# Procedure: as §2
row,geometric mean MFI fold change over Jurkat parental [fold],Binder
1,2 to 10,B1
2,10 to 30,B2
3,2 to 10,B3
4,2 to 10,B4

# Reference: patent publication US20240101668A1 (WUGEN, published 2024)
